T1: EsCas13d, nuclease-dead (Eubacterium siraeum, UniProt B0MS50, R295A;H300A;R849A;H854A)
T1 sequence: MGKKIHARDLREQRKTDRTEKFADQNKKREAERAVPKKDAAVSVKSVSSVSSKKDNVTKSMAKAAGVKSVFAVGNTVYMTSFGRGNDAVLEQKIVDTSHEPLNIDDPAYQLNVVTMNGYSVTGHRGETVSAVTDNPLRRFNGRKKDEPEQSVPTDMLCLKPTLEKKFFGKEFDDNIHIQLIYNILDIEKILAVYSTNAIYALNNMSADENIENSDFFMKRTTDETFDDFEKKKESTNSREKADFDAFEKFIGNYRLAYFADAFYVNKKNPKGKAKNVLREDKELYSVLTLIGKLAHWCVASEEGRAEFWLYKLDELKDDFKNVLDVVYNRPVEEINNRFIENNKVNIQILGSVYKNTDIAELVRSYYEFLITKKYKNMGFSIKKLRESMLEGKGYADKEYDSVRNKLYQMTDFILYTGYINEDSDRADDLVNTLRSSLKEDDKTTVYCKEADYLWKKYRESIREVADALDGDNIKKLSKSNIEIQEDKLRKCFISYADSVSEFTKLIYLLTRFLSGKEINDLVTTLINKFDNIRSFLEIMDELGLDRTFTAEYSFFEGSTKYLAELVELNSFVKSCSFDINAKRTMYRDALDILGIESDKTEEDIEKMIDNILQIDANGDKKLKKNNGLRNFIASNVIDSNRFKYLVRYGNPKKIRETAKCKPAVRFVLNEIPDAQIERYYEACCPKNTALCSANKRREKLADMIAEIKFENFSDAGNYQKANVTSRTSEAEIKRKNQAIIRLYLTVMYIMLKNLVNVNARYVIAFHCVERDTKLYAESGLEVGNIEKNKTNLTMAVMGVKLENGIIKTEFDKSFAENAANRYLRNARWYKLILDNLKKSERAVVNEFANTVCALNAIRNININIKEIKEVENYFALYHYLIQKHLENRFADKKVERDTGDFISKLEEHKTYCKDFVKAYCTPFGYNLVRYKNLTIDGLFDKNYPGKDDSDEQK


Biological target: T1, EsCas13d, nuclease-dead
Test: crRNA (strand 1, pre-loaded); Mg2+; 40 mM Tris-HCl pH 7.5, 150 mM NaCl, 6 mM MgCl2, 1 mM DTT, 0.1% Tween-20, 0.2 mg/ml BSA; 25 C; 10 min per concentration, then washed
Settings: tags: His6-TwinStrep-SUMO cleaved; N-terminal SNAP kept (SNAP-Surface 488); label: 3' end held by stalled T7 RNA polymerase

Row | Binder | Kd
1 | target 1 insA 3' of 19,insC 3' of 12 (mixed) RNA 1: CACCCGUGCAAAAAUGCAGGGGUCUAAAACUGAGCGGAUAACCUCUCUAUGG RNA 2: GGGAAUGGAUCCACAUCUACGAAUUCGUACCAUAAGAGAGGCUUAUCCGCUCACCGAGAUCGGAAGAGCACACGU | 70 ± 31 nM
2 | target 1 G5A,U11C (mixed) RNA 1: CACCCGUGCAAAAAUGCAGGGGUCUAAAACUGAGCGGAUAACCUCUCUAUGG RNA 2: GGGAAUGGAUCCACAUCUACGAAUUCGUACCAUAGAGAGGCUAUCCACUCACCGAGAUCGGAAGAGCACACGU | 34 ± 4 nM
3 | target 1 insC 3' of 8,insG 3' of 7 (mixed) RNA 1: CACCCGUGCAAAAAUGCAGGGGUCUAAAACUGAGCGGAUAACCUCUCUAUGG RNA 2: GGGAAUGGAUCCACAUCUACGAAUUCGUACCAUAGAGAGGUUAUCCGCGCUCACCGAGAUCGGAAGAGCACACGU | 10.3 ± 0.9 nM
4 | target 1 C6U,A20C (mixed) RNA 1: CACCCGUGCAAAAAUGCAGGGGUCUAAAACUGAGCGGAUAACCUCUCUAUGG RNA 2: GGGAAUGGAUCCACAUCUACGAAUUCGUACCCUAGAGAGGUUAUCUGCUCACCGAGAUCGGAAGAGCACACGU | 100 ± 50 nM
5 | target 1 G15A,A18C (mixed) RNA 1: CACCCGUGCAAAAAUGCAGGGGUCUAAAACUGAGCGGAUAACCUCUCUAUGG RNA 2: GGGAAUGGAUCCACAUCUACGAAUUCGUACCAUCGAAAGGUUAUCCGCUCACCGAGAUCGGAAGAGCACACGU | 81 ± 15 nM
6 | target 1 U3C (mixed) RNA 1: CACCCGUGCAAAAAUGCAGGGGUCUAAAACUGAGCGGAUAACCUCUCUAUGG RNA 2: GGGAAUGGAUCCACAUCUACGAAUUCGUACCAUAGAGAGGUUAUCCGCCCACCGAGAUCGGAAGAGCACACGU | 26.3 ± 3.2 nM
7 | target 1 complement block 3-11 (mixed) RNA 1: CACCCGUGCAAAAAUGCAGGGGUCUAAAACUGAGCGGAUAACCUCUCUAUGG RNA 2: GGGAAUGGAUCCACAUCUACGAAUUCGUACCAUAGAGAGGAAUAGGCGACACCGAGAUCGGAAGAGCACACGU | 13 ± 0.6 nM
8 | target 1 C4A,U10G (mixed) RNA 1: CACCCGUGCAAAAAUGCAGGGGUCUAAAACUGAGCGGAUAACCUCUCUAUGG RNA 2: GGGAAUGGAUCCACAUCUACGAAUUCGUACCAUAGAGAGGUGAUCCGAUCACCGAGAUCGGAAGAGCACACGU | 10.1 ± 0.9 nM
9 | target 1 insU 3' of 14,insG 3' of 7 (mixed) RNA 1: CACCCGUGCAAAAAUGCAGGGGUCUAAAACUGAGCGGAUAACCUCUCUAUGG RNA 2: GGGAAUGGAUCCACAUCUACGAAUUCGUACCAUAGAGAUGGUUAUCGCGCUCACCGAGAUCGGAAGAGCACACGU | 29.3 ± 1.7 nM
10 | target 1 insA 3' of 11,insU 3' of 7 (mixed) RNA 1: CACCCGUGCAAAAAUGCAGGGGUCUAAAACUGAGCGGAUAACCUCUCUAUGG RNA 2: GGGAAUGGAUCCACAUCUACGAAUUCGUACCAUAGAGAGGUAUAUCUCGCUCACCGAGAUCGGAAGAGCACACGU | 48 ± 5 nM
11 | target 1 G5C,G12U (mixed) RNA 1: CACCCGUGCAAAAAUGCAGGGGUCUAAAACUGAGCGGAUAACCUCUCUAUGG RNA 2: GGGAAUGGAUCCACAUCUACGAAUUCGUACCAUAGAGAGUUUAUCCCCUCACCGAGAUCGGAAGAGCACACGU | 8.7 ± 0.6 nM
12 | target 1 insU 3' of 9,insC 3' of 8 (mixed) RNA 1: CACCCGUGCAAAAAUGCAGGGGUCUAAAACUGAGCGGAUAACCUCUCUAUGG RNA 2: GGGAAUGGAUCCACAUCUACGAAUUCGUACCAUAGAGAGGUUAUUCCCGCUCACCGAGAUCGGAAGAGCACACGU | 42 ± 10 nM
13 | target 1 G12U,G17U (mixed) RNA 1: CACCCGUGCAAAAAUGCAGGGGUCUAAAACUGAGCGGAUAACCUCUCUAUGG RNA 2: GGGAAUGGAUCCACAUCUACGAAUUCGUACCAUAUAGAGUUUAUCCGCUCACCGAGAUCGGAAGAGCACACGU | 31.3 ± 3.5 nM
14 | target 1 insG 3' of 4,insU 3' of 4 (mixed) RNA 1: CACCCGUGCAAAAAUGCAGGGGUCUAAAACUGAGCGGAUAACCUCUCUAUGG RNA 2: GGGAAUGGAUCCACAUCUACGAAUUCGUACCAUAGAGAGGUUAUCCGCGUUCACCGAGAUCGGAAGAGCACACGU | 7 ± 0.4 nM
15 | target 1 insU 3' of 22,insG 3' of 20 (mixed) RNA 1: CACCCGUGCAAAAAUGCAGGGGUCUAAAACUGAGCGGAUAACCUCUCUAUGG RNA 2: GGGAAUGGAUCCACAUCUACGAAUUCGUACUCAGUAGAGAGGUUAUCCGCUCACCGAGAUCGGAAGAGCACACGU | 78 ± 24 nM
16 | target 1 U19A,C21U (mixed) RNA 1: CACCCGUGCAAAAAUGCAGGGGUCUAAAACUGAGCGGAUAACCUCUCUAUGG RNA 2: GGGAAUGGAUCCACAUCUACGAAUUCGUACUAAAGAGAGGUUAUCCGCUCACCGAGAUCGGAAGAGCACACGU | 10.3 ± 1 nM
17 | target 1 insG 3' of 9,insC 3' of 9 (mixed) RNA 1: CACCCGUGCAAAAAUGCAGGGGUCUAAAACUGAGCGGAUAACCUCUCUAUGG RNA 2: GGGAAUGGAUCCACAUCUACGAAUUCGUACCAUAGAGAGGUUAGCUCCGCUCACCGAGAUCGGAAGAGCACACGU | 17.2 ± 0.7 nM
18 | target 1 insU 3' of 12,insC 3' of 9 (mixed) RNA 1: CACCCGUGCAAAAAUGCAGGGGUCUAAAACUGAGCGGAUAACCUCUCUAUGG RNA 2: GGGAAUGGAUCCACAUCUACGAAUUCGUACCAUAGAGAGGUUUACUCCGCUCACCGAGAUCGGAAGAGCACACGU | 11.6 ± 0.6 nM
19 | target 1 insC 3' of 13,insC 3' of 12 (mixed) RNA 1: CACCCGUGCAAAAAUGCAGGGGUCUAAAACUGAGCGGAUAACCUCUCUAUGG RNA 2: GGGAAUGGAUCCACAUCUACGAAUUCGUACCAUAGAGAGCGCUUAUCCGCUCACCGAGAUCGGAAGAGCACACGU | 17.7 ± 1.2 nM
20 | target 1 insC 3' of 17,insG 3' of 16 (mixed) RNA 1: CACCCGUGCAAAAAUGCAGGGGUCUAAAACUGAGCGGAUAACCUCUCUAUGG RNA 2: GGGAAUGGAUCCACAUCUACGAAUUCGUACCAUAGCAGGAGGUUAUCCGCUCACCGAGAUCGGAAGAGCACACGU | 64 ± 6 nM
21 | target 1 insA 3' of 7,insA 3' of 4 (mixed) RNA 1: CACCCGUGCAAAAAUGCAGGGGUCUAAAACUGAGCGGAUAACCUCUCUAUGG RNA 2: GGGAAUGGAUCCACAUCUACGAAUUCGUACCAUAGAGAGGUUAUCACGCAUCACCGAGAUCGGAAGAGCACACGU | 4.53 ± 0.23 nM
22 | target 1 insC 3' of 15,insU 3' of 15 (mixed) RNA 1: CACCCGUGCAAAAAUGCAGGGGUCUAAAACUGAGCGGAUAACCUCUCUAUGG RNA 2: GGGAAUGGAUCCACAUCUACGAAUUCGUACCAUAGAGCUAGGUUAUCCGCUCACCGAGAUCGGAAGAGCACACGU | 23.3 ± 1.1 nM
23 | target 1 insU 3' of 1 (mixed) RNA 1: CACCCGUGCAAAAAUGCAGGGGUCUAAAACUGAGCGGAUAACCUCUCUAUGG RNA 2: GGGAAUGGAUCCACAUCUACGAAUUCGUACCAUAGAGAGGUUAUCCGCUCAUCCGAGAUCGGAAGAGCACACGU | 9.6 ± 0.4 nM
24 | target 1 insU 3' of 17,insC 3' of 9 (mixed) RNA 1: CACCCGUGCAAAAAUGCAGGGGUCUAAAACUGAGCGGAUAACCUCUCUAUGG RNA 2: GGGAAUGGAUCCACAUCUACGAAUUCGUACCAUAGUAGAGGUUACUCCGCUCACCGAGAUCGGAAGAGCACACGU | 25.1 ± 1.6 nM

— article PMC10786891, “Massively parallel profiling of RNA-targeting CRISPR-Cas13d”
